Results taken from article PMC6018666, “Structural basis for terminal loop recognition and stimulation of pri-miRNA-18a processing by hnRNP A1”.

Experiments:
UP1 (hnRNP A1 RRM1-RRM2) [1] = target: T1, UP1 (hnRNP A1 RRM1-RRM2) (UniProt P09651 1-196); assay: ITC; N=1.35; ITC: 20 mM Na phosphate pH 6.5, 100 mM NaCl, no DTT, 25 C; EMSA: 100 mM KCl, 20% glycerol, 0.2 mM EDTA, 100 mM Tris pH 8.0, 0.5 mM DTT, 0.5 mM ATP, 20 mM creatine phosphate, 3.2 mM MgCl2, 4 C; footprint: 12 mM Tris-HCl pH 7.5, 48 mM NaCl, 1.2 mM MgCl2, 37 C; details: protein: recombinant; tags: His tag removed by TEV; hairpin
UP1(R75E/R88E) = UP1(R75E/R88E) (UniProt P09651 1-196, R75E;R88E); assay: ITC; N=1.1; ITC: 20 mM Na phosphate pH 6.5, 100 mM NaCl, no DTT, 25 C; EMSA: 100 mM KCl, 20% glycerol, 0.2 mM EDTA, 100 mM Tris pH 8.0, 0.5 mM DTT, 0.5 mM ATP, 20 mM creatine phosphate, 3.2 mM MgCl2, 4 C; footprint: 12 mM Tris-HCl pH 7.5, 48 mM NaCl, 1.2 mM MgCl2, 37 C; details: protein: recombinant; tags: His tag removed by TEV; single strand
UP1 (hnRNP A1 RRM1-RRM2) [2] = target: T1, UP1 (hnRNP A1 RRM1-RRM2); assay: ITC; N=1.01; ITC: 20 mM Na phosphate pH 6.5, 100 mM NaCl, no DTT, 25 C; EMSA: 100 mM KCl, 20% glycerol, 0.2 mM EDTA, 100 mM Tris pH 8.0, 0.5 mM DTT, 0.5 mM ATP, 20 mM creatine phosphate, 3.2 mM MgCl2, 4 C; footprint: 12 mM Tris-HCl pH 7.5, 48 mM NaCl, 1.2 mM MgCl2, 37 C; details: protein: recombinant; tags: His tag removed by TEV; single strand
UP1(R75E/R88A) = UP1(R75E/R88A) (UniProt P09651 1-196, R75E;R88A); assay: ITC; N=1.08; ITC: 20 mM Na phosphate pH 6.5, 100 mM NaCl, no DTT, 25 C; EMSA: 100 mM KCl, 20% glycerol, 0.2 mM EDTA, 100 mM Tris pH 8.0, 0.5 mM DTT, 0.5 mM ATP, 20 mM creatine phosphate, 3.2 mM MgCl2, 4 C; footprint: 12 mM Tris-HCl pH 7.5, 48 mM NaCl, 1.2 mM MgCl2, 37 C; details: protein: recombinant; tags: His tag removed by TEV; single strand
UP1 (hnRNP A1 RRM1-RRM2) [3] = target: T1, UP1 (hnRNP A1 RRM1-RRM2); assay: ITC; not fitted by one-site model; ITC: 20 mM Na phosphate pH 6.5, 100 mM NaCl, no DTT, 25 C; EMSA: 100 mM KCl, 20% glycerol, 0.2 mM EDTA, 100 mM Tris pH 8.0, 0.5 mM DTT, 0.5 mM ATP, 20 mM creatine phosphate, 3.2 mM MgCl2, 4 C; footprint: 12 mM Tris-HCl pH 7.5, 48 mM NaCl, 1.2 mM MgCl2, 37 C; details: protein: recombinant; tags: His tag removed by TEV; hairpin
UP1 (hnRNP A1 RRM1-RRM2) [4] = target: T1, UP1 (hnRNP A1 RRM1-RRM2); assay: ITC; N=0.98; ITC: 20 mM Na phosphate pH 6.5, 100 mM NaCl, no DTT, 25 C; EMSA: 100 mM KCl, 20% glycerol, 0.2 mM EDTA, 100 mM Tris pH 8.0, 0.5 mM DTT, 0.5 mM ATP, 20 mM creatine phosphate, 3.2 mM MgCl2, 4 C; footprint: 12 mM Tris-HCl pH 7.5, 48 mM NaCl, 1.2 mM MgCl2, 37 C; details: protein: recombinant; tags: His tag removed by TEV; single strand
hnRNP A1 RRM2 [5] = target: T2, hnRNP A1 RRM2 (UniProt P09651 94-196); assay: EMSA; ITC: 20 mM Na phosphate pH 6.5, 100 mM NaCl, no DTT, 25 C; EMSA: 100 mM KCl, 20% glycerol, 0.2 mM EDTA, 100 mM Tris pH 8.0, 0.5 mM DTT, 0.5 mM ATP, 20 mM creatine phosphate, 3.2 mM MgCl2, 4 C; footprint: 12 mM Tris-HCl pH 7.5, 48 mM NaCl, 1.2 mM MgCl2, 37 C; details: protein: recombinant; tags: His tag removed by TEV; label: internal radiolabel
hnRNP A1 RRM1 [6] = target: T3, hnRNP A1 RRM1 (UniProt P09651 1-97); assay: as above; details: protein: recombinant; tags: His tag removed by TEV; label: internal radiolabel
UP1 (hnRNP A1 RRM1-RRM2) [7] = target: T1, UP1 (hnRNP A1 RRM1-RRM2); assay: as above; details: protein: recombinant; tags: His tag removed by TEV; label: internal radiolabel
UP1 (hnRNP A1 RRM1-RRM2) [8] = target: T1, UP1 (hnRNP A1 RRM1-RRM2); assay: ITC; N=1.07; ITC: 20 mM Na phosphate pH 6.5, 100 mM NaCl, no DTT, 25 C; EMSA: 100 mM KCl, 20% glycerol, 0.2 mM EDTA, 100 mM Tris pH 8.0, 0.5 mM DTT, 0.5 mM ATP, 20 mM creatine phosphate, 3.2 mM MgCl2, 4 C; footprint: 12 mM Tris-HCl pH 7.5, 48 mM NaCl, 1.2 mM MgCl2, 37 C; details: protein: recombinant, tags: His tag removed by TEV
UP1 (hnRNP A1 RRM1-RRM2) [9] = target: T1, UP1 (hnRNP A1 RRM1-RRM2); assay: ITC; N=1.08; ITC: 20 mM Na phosphate pH 6.5, 100 mM NaCl, no DTT, 25 C; EMSA: 100 mM KCl, 20% glycerol, 0.2 mM EDTA, 100 mM Tris pH 8.0, 0.5 mM DTT, 0.5 mM ATP, 20 mM creatine phosphate, 3.2 mM MgCl2, 4 C; footprint: 12 mM Tris-HCl pH 7.5, 48 mM NaCl, 1.2 mM MgCl2, 37 C; details: protein: recombinant; tags: His tag removed by TEV; single strand
UP1 (hnRNP A1 RRM1-RRM2) [10] = target: T1, UP1 (hnRNP A1 RRM1-RRM2); assay: ITC; N=0.75; ITC: 20 mM Na phosphate pH 6.5, 100 mM NaCl, no DTT, 25 C; EMSA: 100 mM KCl, 20% glycerol, 0.2 mM EDTA, 100 mM Tris pH 8.0, 0.5 mM DTT, 0.5 mM ATP, 20 mM creatine phosphate, 3.2 mM MgCl2, 4 C; footprint: 12 mM Tris-HCl pH 7.5, 48 mM NaCl, 1.2 mM MgCl2, 37 C; details: protein: recombinant; tags: His tag removed by TEV; single strand
hnRNP A1 RRM1 [11] = target: T3, hnRNP A1 RRM1; assay: ITC; N=1.01; ITC: 20 mM Na phosphate pH 6.5, 100 mM NaCl, no DTT, 25 C; EMSA: 100 mM KCl, 20% glycerol, 0.2 mM EDTA, 100 mM Tris pH 8.0, 0.5 mM DTT, 0.5 mM ATP, 20 mM creatine phosphate, 3.2 mM MgCl2, 4 C; footprint: 12 mM Tris-HCl pH 7.5, 48 mM NaCl, 1.2 mM MgCl2, 37 C; details: protein: recombinant; tags: His tag removed by TEV; single strand
hnRNP A1 RRM2 [12] = target: T2, hnRNP A1 RRM2; assay: ITC; N=1.09; text gives 6.9; ITC: 20 mM Na phosphate pH 6.5, 100 mM NaCl, no DTT, 25 C; EMSA: 100 mM KCl, 20% glycerol, 0.2 mM EDTA, 100 mM Tris pH 8.0, 0.5 mM DTT, 0.5 mM ATP, 20 mM creatine phosphate, 3.2 mM MgCl2, 4 C; footprint: 12 mM Tris-HCl pH 7.5, 48 mM NaCl, 1.2 mM MgCl2, 37 C; details: protein: recombinant; tags: His tag removed by TEV; single strand
UP1 (hnRNP A1 RRM1-RRM2) [13] = target: T1, UP1 (hnRNP A1 RRM1-RRM2); assay: ITC; N=1.06; ITC: 20 mM Na phosphate pH 6.5, 100 mM NaCl, no DTT, 25 C; EMSA: 100 mM KCl, 20% glycerol, 0.2 mM EDTA, 100 mM Tris pH 8.0, 0.5 mM DTT, 0.5 mM ATP, 20 mM creatine phosphate, 3.2 mM MgCl2, 4 C; footprint: 12 mM Tris-HCl pH 7.5, 48 mM NaCl, 1.2 mM MgCl2, 37 C; details: protein: recombinant; tags: His tag removed by TEV; single strand

T1 sequence (P09651 1-196): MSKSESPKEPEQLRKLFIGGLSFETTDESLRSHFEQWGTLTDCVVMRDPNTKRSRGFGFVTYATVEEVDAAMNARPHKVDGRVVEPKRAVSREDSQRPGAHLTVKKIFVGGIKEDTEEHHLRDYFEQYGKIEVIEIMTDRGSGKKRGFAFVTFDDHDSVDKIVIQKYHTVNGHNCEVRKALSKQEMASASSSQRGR
T2 sequence (P09651 94-196): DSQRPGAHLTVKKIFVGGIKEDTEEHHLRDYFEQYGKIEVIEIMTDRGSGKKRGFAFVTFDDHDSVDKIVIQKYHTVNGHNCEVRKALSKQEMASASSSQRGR
T3 sequence (P09651 1-97): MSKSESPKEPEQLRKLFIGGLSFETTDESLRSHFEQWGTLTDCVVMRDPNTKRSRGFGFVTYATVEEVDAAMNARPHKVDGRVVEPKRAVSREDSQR
UP1(R75E/R88A), sequence (P09651 1-196 R75E/R88A): as the sequence (P09651 1-196) above, with R75E, R88A counted along it
UP1(R75E/R88E), sequence (P09651 1-196 R75E/R88E): as the sequence (P09651 1-196) above, with R75E, R88E counted along it

B1: pri-mir-18a 71-mer (structured_RNA)
RNA: GGUUCUAAGGUGCAUCUAGUGCAGAUAGUGAAGUAGAUUAGCAUCUACUGCCCUAAGUGCUCCUUCUGGCC
Kd (UP1 (hnRNP A1 RRM1-RRM2) [1]): 148 ± 8.9 nM

B2: 12-mer (ssRNA)
RNA: AGUAGAUUAGCA
Kd (UP1(R75E/R88E)): 40.1 ± 4.4 nM
Kd (UP1 (hnRNP A1 RRM1-RRM2) [2]): 15.5 ± 3.4 nM
Kd (UP1(R75E/R88A)): 19 ± 2.05 nM

B3: 17-mer (structured_RNA)
RNA: GGUGAAGUAGAUUAGCC
binding result (UP1 (hnRNP A1 RRM1-RRM2) [3]): binds

B4: 12-mer-mut3 (ssRNA)
RNA: UUUAGAUUAGCA
Kd (UP1 (hnRNP A1 RRM1-RRM2) [4]): 8.33 ± 1.35 nM

B5: pri-mir-18a terminal loop RNA (structured_RNA)
RNA: GUGAAGUAGAUUAGC
binding result (hnRNP A1 RRM2 [5]): no binding
binding result (hnRNP A1 RRM1 [6]): no binding
binding result (UP1 (hnRNP A1 RRM1-RRM2) [7]): binds

B6: 17-mer(A35C) (structured_RNA)
RNA: GGUGAAGUAGAUUCGCC
Kd (UP1 (hnRNP A1 RRM1-RRM2) [8]; hairpin): 3100 ± 190 nM

B7: 12-mer-mut2 (ssRNA)
RNA: AGUAGAUUUUCA
Kd (UP1 (hnRNP A1 RRM1-RRM2) [9]): 330 ± 26.5 nM

B8: 7-mer (ssRNA)
RNA: AGUAGAU
Kd (UP1 (hnRNP A1 RRM1-RRM2) [10]): 3.4 ± 0.12 µM
Kd (hnRNP A1 RRM1 [11]): 20.4 ± 1.06 µM
Kd (hnRNP A1 RRM2 [12]): 6.8 ± 0.14 µM

B9: 12-mer-mut1 (ssRNA)
RNA: AGUUUAUUAGCA
Kd (UP1 (hnRNP A1 RRM1-RRM2) [13]): 154 ± 11 nM

B10: 10-mer (ssRNA)
RNA: UAGAUUAGCA
Kd (UP1 (hnRNP A1 RRM1-RRM2) [8]; single strand): 19.1 ± 6.73 nM
